According to a protein production outcome set (Wang et al. 2014):

Test: label from the status in PepcDB records

Question: Which protein production does the source give for “MAPKKIGAGKGDSSILAKISNYDIVSQGRRAACDAVYVSKKLLKSTGKAAWIAGTTFLILAVPLILELEQDHRLGEIDFEQASLLGTPPVGAML” here?
Answer: failed

Question: Which protein production does the source give for “SSQRYMQILQIMPEAIFIHDNGKCNFINDKAIKLLEVKDVKDIIGKNIVDFIHEDYKELAQARIDKTMKTGMPCDFIEERLVTAMGKKIIIEAATTTFSHNNGTFITIIRDMT” here?
Answer: failed

Question: For “MNDRARELASRLIRNFNEASLEHEVREPLYESAAARLGTGTVAHKLGASVDVVAPGKRSCPYHFHHAQEEMFVIIEGEGSLRVAGEMLPIKTGDVLFIPAGPEYPHQIINTSQAPLKYLSISTRETPEVCEYPDSGKYQAMVSANGARVFTANQRTTENVDYWDGEPLEHHHHHH”, which protein production is on record?
Answer: not failed

Question: For “MAAWVCILGQMKPDPETKPDPMRQTAQPAPQRLLRHLPLIVIVLIAVIGAITLRDYLSFDTLAANRQALLAYREAHYAALAAIFVATYVLIVAFSLPGAAVASMTGGFLFGLAVGTVLNVVAATIGAVAIFLAARAGLGAMLTARLEASEGTVKRLKEGLRRNEIEVLFLLRLVPAVPFFAANLIPALVGVKLRNYVLTTALGIVPGAIVFTWIGVGLGGVFDRGESPDLSLFREPFVIGPILGLCLLAALPIAIKALRGKPEGE”, which protein production is on record?
Answer: failed

Question: With “MSNVLTEIDSQYPYMTKNEKKIAKFILNSPQKVIKMRSQDLASLLDISTSSVIRFSKKITDGGFHDLKINISKYVPKASSIYNVELMNNESTESLRTKLHTRTTRALNHANNELN” as the sequence, how does the protein production read?
Answer: not failed

Question: With “MQIKEIFMIRCISCLSVVLLHIISMVLMLQAEALADISHTVDSFRTLLMFSTPAFIFISEFLLARSYPDGVPDGFLKKRGKVIFVPFLFIAAIDALLMTSAMGGEVTFLAFVQKYLANVFLGNFIGYFILVIFQFYMLHMMFHEYLKKASPKWVLSISFVVTAAYLGYFSAASPAPASEEGGAFPFFWVPFAGWLFYFCLAYYCGKEYKRFLALLNQYRWVVYGAAIASGALVVTVSYVGEIGMISSKRPDIMLYSTSMIFLCFHLFSKMKHVPKIMMFISNYSFSIYLLHAYFMIIGYVLLLNMPEIPAVPAVLLLFAVCTAGPIMTSWALNKFKYGYLFVGKIYQPKQKKVTVEVRDHAG” as the sequence, how does the protein production read?
Answer: failed

Question: With “MNVLFTSVPQEDVPFYQEALKDLSLKIYTTDVSKVPENELKKAELISVFVYDKLTEELLSKMPRLKLIHTRSVGFDHIDLDYCKKKGILVTHIPAYSPESVAEHTFAMILTLVKRLKRIEDRVKKLNFSQDSEILARELNRLTLGVIGTGRIGSRVAMYGLAFGMKVLCYDVVKREDLKEKGCVYTSLDELLKESDVISLHVPYTKETHHMINEERISLMKDGVYLINTARGKVVDTDALYRAYQRGKFSGLGLDVFEDEEILILKKYTEGKATDKNLKILELACKDNVIITPHIAYYTDKSLERIREETVKVVKAFVKGDLEQIKGNFVVGPS” as the sequence, how does the protein production read?
Answer: not failed

Question: For “MPLFSQHTARFSPDVPLEGTSSRELLKRYQPLETLATGGFGSIEICRDTHLRRRVAIKRIPLINGAGMPASDIMDVLREAHTAAMLQHPNIVQVIDFTHDTAYAYLVMEYVDGMSLAEFLHRVDGHSLTFDEAAAIADALGQALTFAHSNGVLHLDIKPANVLIDHSGNVKLTDFGMARLSSAGGFGGSRGGTIGYMPPEQLDIETGTVDERADVFALACVIYEGLCGSAPFMAATPADSLGHIIGGATYPSELIPHFPPGAESALMSALSPMPQDRPNSIEAFCDQLLAGLGSVREGRRSLEQMVGELSDDEQELDDIEPSHYEDDAIEVDPALGWAGTRWSHARDYTMRTISALTCGTFSFLLMQTAGVAALPGLVIAAIAIGAAAGLAPQIGSAISAVGFLVLMANATMQAQGILSMLPVAVIFAAAMSGWWIAWGRTETAASATLTCALALGCLTGNTFLAAGVAAGVASFWLGPASAAAATGMGALFARLATVALSAGGVLGLGNVAAALGDPLLWAAFVLVAATAAASSALLNVHAKRANQGSNLAAIAAIAVTGIGCAAASCLAHHMEIASLAAAVIAKAAVAGILSSIIVGICLYLLGYQRTYTESDLS”, which protein production is on record?
Answer: failed

Question: For “MIYEPAEDSELLLEAALRELKPDDEVIEVGAGSGFVAERLKGKCKCILTTDISPFAAMELRRKGLDVVMTDIAKGIRKKFSLVLFNPPYVELEDELRRGDWLDVAIDGGKKGVKVIKKFLDSLDEIMAERGRAILIASSQNEPDVFDLIDERGFRYEIVGERGLFFEKLFAIKIWKE”, which protein production is on record?
Answer: failed

Question: Which protein production does the source give for “PLPNPEGLDSDFLAVLSDYPSPDISPPIFRRGEKLRVISDEGGWWKAISLSTGRESYIPGICVARV” here?
Answer: not failed

Question: With “MFDRLKNGEKIAPIVKEVESQITEVHKRADEVIESNQFRVLESFGKHKISDSHFIPTTGYGYDDIGRDTLEKVYADVFGAEAGLVRPQIISGTHAISTALFGILRPGDELLYITGKPYDTLEEIVGVRGKGVGSFKEYNIGYNAVPLTEGGLVDFEAVAAAIHSNTKMIGIQRSKGYATRPSFTISQIKEMIAFVKEIKPDVVVFVDNCYGEFIEEQEPCHVGADLMAGSLIKNPGGGIVKTGGYIVGKEQYVEACAYRLTSPGIGAEAGASLYSLQEMYQGFFLAPHVAGQALKGAIFTAAFLEKLGMNTSPAWNAPRTDLIQSVQFDDKDRMIAFCQAIQYASPINSHFTPYANYMPGYEDDVIMAAGTFIQGASIELSADGPIRPPYVAYVQGGLTYSHVKIAICSAIDELIEKNLLTISLEHHHHHH” as the sequence, how does the protein production read?
Answer: not failed

Question: Which protein production does the source give for “MSISSHDVGRTYPTTDPYLVTAEKIRELATALGDNAPAYRGDDPIAPPTFAMVLASRAWEALFDDEQLDLRLEHMIHTDQSFHWIRPLHEGDEVTAALTITSVRTRGNTDIIGINVSLDHVDGEHLGNATSTLWHTRPEGNA” here?
Answer: failed

Question: With “HRAQRQQMTVLRGDAQSIDIIDLQTFIDSFEEHIWVKNTEGVYTICNQSVEKAWDLPRSDIVGKTDEDLFGKAIADIFLNGDRLAIEAGAPIIVAECLDGENKNNHLWLETLKLPALTPDGELAGVIGMTRNISKHKEVEEQLTLATNVFKHSF” as the sequence, how does the protein production read?
Answer: failed

Question: For “MSQTTTYAGSAGTAKTEIETSTIRAISWRLIPFLVLAYFFSYLDRVNLGFAALTMNAELKFTPLIFSWGAGIFFIGYFIFEVPSNLALEKFGASRWIARIMVTWGIISALMAMVSGVTSFYVLRFLLGVAEAGFFPGIILYLTYWYPAEYRARFLAAFAIAVPVSTVIGAPVSGLLLGLDGVMGLKGWQWLFIIEGIPSVLLGIVTWFYLTDRPEKADWLSAEQKAWLKAKLDSEIAAKQAVKHLSLGEALSSPKVIALSLIYFGFVGALYGMQFWLPQIVKAFGLTNAQTGFVTAIPYLFGTVAMILWARHSDATRERVMHVGAPLLLTAVALGVSSYLTDPTLTMVVLTVAAIGVFCCFGVFWTLPTAWLSGTAAAGGIALINSIGNLAGFGGPYLIGWVKEATGQTSTGLLVLAVLPLLAGILVFVGGHDSKHEFAGQGR”, which protein production is on record?
Answer: failed

Question: Which protein production does the source give for “MRKFTILLLLLWLPSFVSSLTEFDSVMDLRKQLIVLTGWLGFAYMGAAIVLSARFKWTERLVKGLDKAYGLHKKLGISAFIALLLHWLVIKAAHWAVQLGWLVRPTHAGKERVITGVDWISLAEKVGDISFKVFILFTIISLVERISYKKFKGIHKIGGALMLAGVFHTLFLIKWDLSLIPMNIAIILISAISVWCAILSLTGSIGKKNKIGGQVVLVDKFKDDSEFTVVARLQIKLESKLRYKEGQFAYINFHDGEAPHPFSILNYNEKTRLVEFGIKDLGDYTHQLVNQIAVGKKATVEGGYGYFQVPSDMNQVWVGAGIGIVPLLSRLYWLQKSTDKTTKRIEKIHLFYCVNNEKEAFFSTEIKAILRKMDFIELHLIESDKGYRLTSEYILNKIDNESFSVSFCGPEGFGMSLKQGLMANGLPEASFHKEIFKMR” here?
Answer: failed

Question: With “MGRKPIKAGAIPRFRVRPQKSGVVYYYYDHGGKPRKETPLGRDYGLAIKRWAELEHAQITPAIAVTFRHVAERYRAEVIPTKAYNTQRMHHVYLNYLLQFFDDPPAPFESIKPVNIRQYLDWRPFKVSANREVALFSHLWNWARSKGITDLPNPCGGIRRNKERGRDVYIDDTTYRAVYQAADQTLRDAMDLAYLTGQRVSDVVSMDERHIVNGALEICQAKTGVKLAIAITGELAVLIKRIFDRKRGMKLRSTRLIVDEKGLGLNWKKLAYRFRKVRAAAGIAKEVFQFRDLRAKAATDKADLAGDIRQAQAQLGHTSVVMTEHYVRKRKGAKVTPTR” as the sequence, how does the protein production read?
Answer: failed

Question: For “MTDNKIKNEDGKLELIINAAQKRFAHYGLCKTTMNEIASDVGMGKASLYYYFPDKETLFEAVIKKEQNVFFDEMDKILNSGIDATALLKKYVKLRSLHFRHLLNLSKLRSDFFHNTKPVFAKAFESFKQKEVEIVAGIIQYGITTKEFKRGNKHENAEFLVHLLLGVRMVKLKYKEINDFDESDYEDLDKNMCKVAGMFLKEIQTEVASR”, which protein production is on record?
Answer: not failed

Question: For “EIAQVTSAYVASGSEQLSLAPGQLILILKKNTSGWWQGELQARGKKRQKGWFPASHVKLLGPSSERA”, which protein production is on record?
Answer: not failed

Question: For “TWTDIRYREEGNAGFLSFSFPGGAMSTAQCRRLLDAYRDACTRPTSVLVLGGERDFFSNGIHLNVIEAADDPGAESWANINAIDDLVEAVLTTTDR”, which protein production is on record?
Answer: failed

Question: For “MRLLAKIICLMLWAICVAEDCNELPPRRNTEILTGSWSDQTYPEGTQAIYKCRPGYRSLGNVIMVCRKGEWVALNPLRKCQKRPCGHPGDTPFGTFTLTGGNVFEYGVKAVYTCNEGYQLLGEINYRECDTDGWTNDIPICEVVKCLPVTAPENGKIVSSAMEPDREYHFGQAVRFVCNSGYKIEGDEEMHCSDDGFWSKEKPKCVEISCKSPDVINGSPISQKIIYKENERFQYKCNMGYEYSERGDAVCTESGWRPLPSCEEKSCDNPYIPNGDYSPLRIKHRTGDEITYQCRNGFYPATRGNTAKCTSTGWIPAPRCTLKPCDYPDIKHGGLYHENMRRPYFPVAVGKYYSYYCDEHFETPSGSYWDHIHCTQDGWSPAVPCLRKCYFPYLENGYNQNYGRKFVQGKSIDVACHPGYALPKAQTTVTCMENGWSPTPRCIRVKTCSKSSIDIENGFISESQYTYALKEKAKYQCKLGYVTADGETSGSITCGKDGWSAQPTCIKSCDIPVFMNARTKNDFTWFKLNDTLDYECHDGYESNTGSTTGSIVCGYNGWSDLPICYERECELPKIDVHLVPDRKKDQYKVGEVLKFSCKPGFTIVGPNSVQCYHFGLSPDLPICKEQVQSCGPPPELLNGNVKEKTKEEYGHSEVVEYYCNPRFLMKGPNKIQCVDGEWTTLPVCIVEESTCGDIPELEHGWAQLSSPPYYYGDSVEFNCSESFTMIGHRSITCIHGVWTQLPQCVAIDKLKKCKSSNLIILEEHLKNKKEFDHNSNIRYRCRGKEGWIHTVCINGRWDPEVNCSMAQIQLCPPPPQIPNSHNMTTTLNYRDGEKVSVLCQENYLIQEGEEITCKDGRWQSIPLCVEKIPCSQPPQIEHGTINSSRSSQESYAHGTKLSYTCEGGFRISEENETTCYMGKWSSPPQCEGLPCKSPPEISHGVVAHMSDSYQYGEEVTYKCFEGFGIDGPAIAKCLGEKWSHPPSCIKTDCLSLPSFENAIPMGEKKDVYKAGEQVTYTCATYYKMDGASNVTCINSRWTGRPTCRDTSCVNPPTVQNAYIVSRQMSKYPSGERVRYQCRSPYEMFGDEEVMCLNGNWTEPPQCKDSTGKCGPPPPIDNGDITSFPLSVYAPASSVEYQCQNLYQLEGNKRITCRNGQWSEPPKCLHPCVISREIMENYNIALRWTAKQKLYSRTGESVEFVCKRGYRLSSRSHTLRTTCWDGKLEYPTCAKR”, which protein production is on record?
Answer: failed
